Positions count from the first letter of the chain named. In names and notes the source's numbering stands.
T1: human beta-Klotho (KLB) (human, UniProt Q86Z14 53-997)
T1 construct: bought protein, used as analyte in the off-rate screening; also called human KLB; β-Klotho
T1 sequence (looked up): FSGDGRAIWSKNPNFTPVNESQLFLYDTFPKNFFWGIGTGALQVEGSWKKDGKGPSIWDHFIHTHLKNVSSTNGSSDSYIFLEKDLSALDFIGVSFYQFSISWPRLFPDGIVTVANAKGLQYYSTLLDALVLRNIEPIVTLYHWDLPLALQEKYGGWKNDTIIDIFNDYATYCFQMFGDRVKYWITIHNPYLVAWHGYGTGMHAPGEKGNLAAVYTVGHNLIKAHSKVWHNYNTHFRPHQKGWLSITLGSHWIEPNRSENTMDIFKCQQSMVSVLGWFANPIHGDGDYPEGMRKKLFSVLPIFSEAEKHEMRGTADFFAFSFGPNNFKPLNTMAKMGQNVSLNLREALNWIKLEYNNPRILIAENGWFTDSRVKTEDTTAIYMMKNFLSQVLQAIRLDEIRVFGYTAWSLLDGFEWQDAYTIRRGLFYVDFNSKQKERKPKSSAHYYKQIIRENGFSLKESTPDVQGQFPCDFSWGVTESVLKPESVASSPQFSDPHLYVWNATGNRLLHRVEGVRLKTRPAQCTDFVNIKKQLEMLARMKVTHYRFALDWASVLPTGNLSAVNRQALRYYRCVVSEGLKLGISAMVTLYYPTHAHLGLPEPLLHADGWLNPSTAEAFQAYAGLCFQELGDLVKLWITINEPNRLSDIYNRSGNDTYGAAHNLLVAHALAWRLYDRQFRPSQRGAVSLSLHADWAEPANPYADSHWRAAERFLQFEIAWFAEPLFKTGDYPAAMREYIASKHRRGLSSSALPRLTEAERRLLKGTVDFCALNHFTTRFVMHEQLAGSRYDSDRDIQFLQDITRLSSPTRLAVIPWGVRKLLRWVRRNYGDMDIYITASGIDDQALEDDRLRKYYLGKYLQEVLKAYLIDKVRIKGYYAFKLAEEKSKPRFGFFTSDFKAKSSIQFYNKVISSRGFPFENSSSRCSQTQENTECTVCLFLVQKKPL

B1: 16H7 variant with light chain substitution P54W (antibody, V domains shown)
VH: not shown
VL: SYVLTQPPSVSVAPGQTARITCGGNNIGSESVHWYQQKPGQAPVLVVYDDSDRWSGIPERFSGSNSGNTATLTISRVEAGDEADYYCQVWDGNSDHVVFGGGTKLTVLG
B2: 16H7 variant with light chain substitution R53C (antibody, V domains shown)
VH: not shown
VL: B1 VL with R53C, W54P
B3: 16H7 variant with light chain substitution R53S (antibody, V domains shown)
VH: not shown
VL: B1 VL with R53S, W54P
B4: 16H7 variant with light chain substitution R53A (antibody, V domains shown)
VH: not shown
VL: B1 VL with R53A, W54P
B5: 16H7 variant with light chain substitution S55V (antibody, V domains shown)
VH: not shown
VL: B1 VL with W54P, S55V
B6: 16H7 variant with light chain substitution R53Q (antibody, V domains shown)
VH: not shown
VL: B1 VL with R53Q, W54P
B7: 16H7 variant with light chain substitution S51G (antibody, V domains shown)
VH: not shown
VL: B1 VL with S51G, W54P
B8: 16H7 variant with light chain substitution S51D (antibody, V domains shown)
VH: not shown
VL: B1 VL with S51D, W54P
B9: 16H7 variant with light chain substitution S55C (antibody, V domains shown)
VH: not shown
VL: B1 VL with W54P, S55C
B10: 16H7 variant with light chain substitution R53K (antibody, V domains shown)
VH: not shown
VL: B1 VL with R53K, W54P
B11: 16H7 variant with light chain substitution S55N (antibody, V domains shown)
VH: not shown
VL: B1 VL with W54P, S55N
B12: 16H7 variant with light chain substitution S51A (antibody, V domains shown)
VH: not shown
VL: B1 VL with S51A, W54P
B13: 16H7 variant with light chain substitution R53I (antibody, V domains shown)
VH: not shown
VL: B1 VL with R53I, W54P
B14: 16H7 variant with light chain substitution S55Y (antibody, V domains shown)
VH: not shown
VL: B1 VL with W54P, S55Y
B15: 16H7 variant with light chain substitution V98L (antibody, V domains shown)
VH: not shown
VL: B1 VL with W54P, V98L
B16: 16H7 variant with light chain substitution V98H (antibody, V domains shown)
VH: not shown
VL: B1 VL with W54P, V98H
B17: 16H7 variant with light chain substitution S55H (antibody, V domains shown)
VH: not shown
VL: B1 VL with W54P, S55H
B18: 16H7 variant with light chain substitution S55R (antibody, V domains shown)
VH: not shown
VL: B1 VL with W54P, S55R
B19: 16H7 variant with light chain substitution R53L (antibody, V domains shown)
VH: not shown
VL: B1 VL with R53L, W54P
B20: 16H7 variant with light chain substitution S51E (antibody, V domains shown)
VH: not shown
VL: B1 VL with S51E, W54P
B21: 16H7 variant with light chain substitution R53M (antibody, V domains shown)
VH: not shown
VL: B1 VL with R53M, W54P
B22: 16H7 variant with light chain substitution P54Y (antibody, V domains shown)
VH: not shown
VL: B1 VL with W54Y
B23: 16H7 variant with light chain substitution V98G (antibody, V domains shown)
VH: not shown
VL: B1 VL with W54P, V98G
B24: 16H7 variant with light chain substitution S55G (antibody, V domains shown)
VH: not shown
VL: B1 VL with W54P, S55G
B25: 16H7 variant with light chain substitution S51C (antibody, V domains shown)
VH: not shown
VL: B1 VL with S51C, W54P
B26: 16H7 variant with light chain substitution V98A (antibody, V domains shown)
VH: not shown
VL: B1 VL with W54P, V98A
B27: 16H7 variant with light chain substitution S55E (antibody, V domains shown)
VH: not shown
VL: B1 VL with W54P, S55E
B28: 16H7 variant with light chain substitution R53T (antibody, V domains shown)
VH: not shown
VL: B1 VL with R53T, W54P
B29: 16H7 variant with light chain substitution S55L (antibody, V domains shown)
VH: not shown
VL: B1 VL with W54P, S55L
B30: 16H7 variant with light chain substitution S55D (antibody, V domains shown)
VH: not shown
VL: B1 VL with W54P, S55D
B31: 16H7 variant with light chain substitution V98T (antibody, V domains shown)
VH: not shown
VL: B1 VL with W54P, V98T
B32: 16H7 variant with light chain substitution S55T (antibody, V domains shown)
VH: not shown
VL: B1 VL with W54P, S55T
B33: 16H7 variant with light chain substitution S55I (antibody, V domains shown)
VH: not shown
VL: B1 VL with W54P, S55I
B34: 16H7 variant with light chain substitution S55P (antibody, V domains shown)
VH: not shown
VL: B1 VL with W54P, S55P
B35: 16H7 variant with light chain substitution R53P (antibody, V domains shown)
VH: not shown
VL: B1 VL with R53P, W54P
B36: 16H7 variant with light chain substitution S55F (antibody, V domains shown)
VH: not shown
VL: B1 VL with W54P, S55F
B37: 16H7 variant with light chain substitution V98K (antibody, V domains shown)
VH: not shown
VL: B1 VL with W54P, V98K
B38: 16H7 variant with light chain substitution R53H (antibody, V domains shown)
VH: not shown
VL: B1 VL with R53H, W54P
B39: 16H7 variant with light chain substitution S51V (antibody, V domains shown)
VH: not shown
VL: B1 VL with S51V, W54P

Target: T1, human beta-Klotho (KLB)
Test: BLI off-rate screening, mAb captured, KLB analyte;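 further: Off-rate taken from the dissociation phase, biosensors held in D-PBS with 0.1% BSA over 1800 s, antibody supernatants diluted to 25 µg/mL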

Row | Binder | koff
1 | B1 | 0.00017 s⁻¹
2 | B2 | 0.00044 s⁻¹
3 | B3 | 0.00029 s⁻¹
4 | B4 | 0.0002 s⁻¹
5 | B5 | 4.4e-05 s⁻¹
6 | B6 | 0.00024 s⁻¹
7 | B7 | 0.0001 s⁻¹
8 | B8 | 3.7e-05 s⁻¹
9 | B9 | 6.3e-05 s⁻¹
10 | B10 | 4e-05 s⁻¹
11 | B11 | 1.7e-05 s⁻¹
12 | B12 | 4.7e-05 s⁻¹
13 | B13 | 1.7e-05 s⁻¹
14 | B14 | 1.8e-05 s⁻¹
15 | B15 | 0.00013 s⁻¹
16 | B16 | 1.8e-05 s⁻¹
17 | B17 | 4e-06 s⁻¹
18 | B18 | 4.9e-05 s⁻¹
19 | B19 | 2e-05 s⁻¹
20 | B20 | 7.2e-05 s⁻¹

Row | Binder | koff
21 | B21 | 0.00018 s⁻¹
22 | B22 | 8.3e-05 s⁻¹
23 | B23 | 1.1e-05 s⁻¹
24 | B24 | 3.5e-05 s⁻¹
25 | B25 | 4.7e-05 s⁻¹
26 | B26 | 4.6e-05 s⁻¹
27 | B27 | 3.8e-05 s⁻¹
28 | B28 | 8.7e-05 s⁻¹
29 | B29 | 8.4e-05 s⁻¹
30 | B30 | 3.6e-05 s⁻¹
31 | B31 | 3.1e-05 s⁻¹
32 | B32 | 1.3e-05 s⁻¹
33 | B33 | 1.3e-05 s⁻¹
34 | B34 | 3.2e-05 s⁻¹
35 | B35 | 0.00028 s⁻¹
36 | B36 | 2.4e-05 s⁻¹
37 | B37 | 9e-05 s⁻¹
38 | B38 | 0.00015 s⁻¹
39 | B39 | 2e-05 s⁻¹

Target: human FGFR1c/KLB receptor complex on iLite FGF21 Assay Ready Cells (human, UniProt P11362 22-822; Q86Z14 1-1044)
Sequence (P11362 22-822, chain 1 of 2): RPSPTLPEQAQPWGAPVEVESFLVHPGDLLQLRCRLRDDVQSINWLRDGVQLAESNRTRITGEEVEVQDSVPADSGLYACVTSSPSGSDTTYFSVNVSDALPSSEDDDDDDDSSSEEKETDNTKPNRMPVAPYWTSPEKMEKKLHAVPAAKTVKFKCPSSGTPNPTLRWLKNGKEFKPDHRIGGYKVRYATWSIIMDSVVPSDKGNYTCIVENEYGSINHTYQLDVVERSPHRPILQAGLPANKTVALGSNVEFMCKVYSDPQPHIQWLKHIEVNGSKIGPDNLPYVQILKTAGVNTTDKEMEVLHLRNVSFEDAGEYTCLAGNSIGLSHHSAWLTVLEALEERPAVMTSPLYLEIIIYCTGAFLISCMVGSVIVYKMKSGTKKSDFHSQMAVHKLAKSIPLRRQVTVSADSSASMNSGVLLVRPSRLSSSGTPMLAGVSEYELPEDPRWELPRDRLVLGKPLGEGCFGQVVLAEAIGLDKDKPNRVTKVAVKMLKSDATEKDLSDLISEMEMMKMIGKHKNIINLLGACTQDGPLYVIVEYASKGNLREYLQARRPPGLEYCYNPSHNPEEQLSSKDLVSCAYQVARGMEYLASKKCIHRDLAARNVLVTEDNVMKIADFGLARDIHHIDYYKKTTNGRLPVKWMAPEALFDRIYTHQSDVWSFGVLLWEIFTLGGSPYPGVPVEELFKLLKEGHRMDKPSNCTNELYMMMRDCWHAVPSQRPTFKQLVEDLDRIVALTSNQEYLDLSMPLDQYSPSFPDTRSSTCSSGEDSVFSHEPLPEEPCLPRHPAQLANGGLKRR
Sequence (Q86Z14 whole entry, chain 2 of 2): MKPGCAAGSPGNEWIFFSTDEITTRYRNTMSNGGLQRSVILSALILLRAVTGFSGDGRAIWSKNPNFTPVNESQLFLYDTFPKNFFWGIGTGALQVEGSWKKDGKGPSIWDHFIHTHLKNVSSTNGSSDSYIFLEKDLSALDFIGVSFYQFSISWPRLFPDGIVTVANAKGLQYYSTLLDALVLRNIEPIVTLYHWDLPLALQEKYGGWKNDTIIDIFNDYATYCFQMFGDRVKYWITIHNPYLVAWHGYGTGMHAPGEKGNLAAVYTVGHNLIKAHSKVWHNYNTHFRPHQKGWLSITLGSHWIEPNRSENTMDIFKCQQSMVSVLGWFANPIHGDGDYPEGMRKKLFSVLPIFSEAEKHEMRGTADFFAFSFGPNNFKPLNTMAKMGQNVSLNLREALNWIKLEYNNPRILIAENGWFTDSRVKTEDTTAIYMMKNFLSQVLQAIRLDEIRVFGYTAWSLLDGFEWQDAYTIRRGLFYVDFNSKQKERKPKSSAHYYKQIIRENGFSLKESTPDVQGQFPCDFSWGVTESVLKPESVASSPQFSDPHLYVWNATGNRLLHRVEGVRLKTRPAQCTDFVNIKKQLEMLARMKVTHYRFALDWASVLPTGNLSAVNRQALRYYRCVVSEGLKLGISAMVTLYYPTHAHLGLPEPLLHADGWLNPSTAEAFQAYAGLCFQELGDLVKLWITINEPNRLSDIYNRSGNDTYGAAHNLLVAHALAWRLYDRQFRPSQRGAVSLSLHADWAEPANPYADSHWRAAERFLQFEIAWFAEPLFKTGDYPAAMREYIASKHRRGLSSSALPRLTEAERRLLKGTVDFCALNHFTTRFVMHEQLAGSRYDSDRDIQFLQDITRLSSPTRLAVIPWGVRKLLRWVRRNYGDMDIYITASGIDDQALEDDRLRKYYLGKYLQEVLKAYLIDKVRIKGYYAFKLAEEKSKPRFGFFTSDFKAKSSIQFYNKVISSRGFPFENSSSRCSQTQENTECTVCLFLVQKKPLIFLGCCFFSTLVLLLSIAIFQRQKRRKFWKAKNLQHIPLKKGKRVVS
Test: cell-based or functional assay

Row | Binder | Mean E max (%) | Mean EC50
40 | B1 | 98% | 0.091 nM
41 | B2 | 107% | 0.147 nM
42 | B3 | 105% | 0.113 nM
43 | B4 | 89% | 0.132 nM
44 | B5 | 100% | 0.131 nM
45 | B6 | 100% | 0.131 nM
46 | B7 | 104% | 0.129 nM
47 | B8 | 97% | 0.098 nM
48 | B9 | 91% | 0.244 nM
49 | B10 | 98% | 0.114 nM
50 | B11 | 111% | 0.141 nM
51 | B12 | 109% | 0.123 nM
52 | B13 | 100% | 0.151 nM
53 | B14 | 113% | 0.126 nM
54 | B15 | 105% | 0.121 nM
55 | B16 | 103% | 0.107 nM
56 | B17 | 111% | 0.122 nM
57 | B18 | 100% | 0.143 nM
58 | B19 | 106% | 0.151 nM
59 | B20 | 107% | 0.108 nM

Row | Binder | Mean E max (%) | Mean EC50
60 | B21 | 95% | 0.099 nM
61 | B22 | 110% | 0.15 nM
62 | B23 | 105% | 0.118 nM
63 | B24 | 104% | 0.128 nM
64 | B25 | 112% | 0.147 nM
65 | B26 | 99% | 0.139 nM
66 | B27 | 106% | 0.141 nM
67 | B28 | 109% | 0.134 nM
68 | B29 | 97% | 0.126 nM
69 | B30 | 109% | 0.146 nM
70 | B31 | 99% | 0.088 nM
71 | B32 | 100% | 0.109 nM
72 | B33 | 110% | 0.133 nM
73 | B34 | 99% | 0.109 nM
74 | B35 | 92% | 0.126 nM
75 | B36 | 97% | 0.095 nM
76 | B37 | 106% | 0.111 nM
77 | B38 | 103% | 0.153 nM
78 | B39 | 110% | 0.139 nM

Reference: US20220010021A1 (Sanofi, published 2022)
